These results are taken from publication PMC3493473.

Assay [1] addresses full length ROP18 (ROP18-FL), recombinant (Toxoplasma gondii (type I RH strain)).
Assay [2] deals with T1, ROP18-kinase domain (ROP18-KD) (Toxoplasma gondii) (UniProt Q2PAY2).
T1 sequence: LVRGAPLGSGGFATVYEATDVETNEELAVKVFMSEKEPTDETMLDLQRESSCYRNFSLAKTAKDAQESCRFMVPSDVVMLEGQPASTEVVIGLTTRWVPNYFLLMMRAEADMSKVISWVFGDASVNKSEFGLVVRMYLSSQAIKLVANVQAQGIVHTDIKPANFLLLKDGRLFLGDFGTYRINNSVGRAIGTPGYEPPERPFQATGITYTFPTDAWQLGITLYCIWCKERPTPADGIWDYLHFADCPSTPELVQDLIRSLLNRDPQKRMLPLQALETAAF

Consider “recombinant ROP5 (rROP5) (from UniProt F2YGR7 25-549) (natural protein)”, for which the in vitro 32P kinase activity of ROP18-FL (25 ng) on immunoprecipitated Irgb6 with against without rROP5 (50 ng), fold increase (Figure 5F) in assay [1] turned out to be 12 fold. The substance also came in with an in vitro 32P kinase activity of ROP18-KD (100 ng) on dMBP with against without rROP5 (200 ng), fold increase (Figure 5E) in assay [2] of 12 fold.
